# Assay results: US11998613B2, “Antibody-drug conjugates containing an anti-mesothelin antibody and uses thereof” (DEVELOPMENT CENTER FOR BIOTECHNOLOGY, priority 2020, dated 2024)
# How the values were obtained:
# mesothelin protein = mesothelin protein (Homo sapiens, UniProt Q13421); experiment: Binding kinetics of anti-mesothelin ADCs by surface plasma resonance (Biacore T100); details: analyte MSLN
# Method: The kinetic constant of the anti-mesothelin ADCs interaction against mesothelin was determined by surface plasma resonance (Biacore® T100, Biacore, Inc., Piscataway, NJ). The flow cell of the CM5 wafer was fixed with approximately 10,000 reaction units (RU) of anti-human IgG-Fc (Biacore®) in 10 mM glycine pH 5.0 at 10 μL/min for 600 seconds. 10 μg/mL of anti-mesothelin antibody and anti-mesothelin ADCs diluted in TBS at 10 μl/min were captured on CM5 chips. Four concentrations (from 3.7 to 100 nM) of human mesothelin recombinant protein and zero concentration (flow buffer) in 100 μl/min binding were recorded in PBS containing 1 mM CaCl2 for 3 minutes. The dissociation of the complex was measured for 10 minutes. The water surface was regenerated by injecting 3 M MgCl2 and 3 mM EGTA at 10 μl/min for 60 seconds. The curve obtained after subtracting the reference and buffer signals was taken into the 1:1 Langmuir binding model using the Biacore® T100 evaluation software (Biacore®).
# [1] = system: Ovarian carcinoma cell line OVCAR-3 (MSLN+); experiment: In vitro cytotoxicity, CellTiter-Glo luminescent cell viability assay, OVCAR-3; assay type: cell-based, human; details: OVCAR-3, 72 hours treatment; read-out: Relative IC50 (nM of toxic payload/ADCs)
# Method: The KLM-1 & OVCAR-3 cell lines were maintained in an atmosphere of 5% CO2 in a humidified 37° C. incubator. The day before treatment, cells were collected and seeded into 96-well plates (4,000 cells per well). On the second day, cells were treated with 3-fold serial dilution concentration of toxic payloads and ADCs. Each treatment was performed in eight triplicate data points. After the treatment of 72 hours, cell viability was assessed by CellTiter-Glo® kit (Promega) according to the manufacturer's instruction. At the end of the incubation, luminescence was measured using a SpectraMax i3x Multi Mode Detection Platform (Molecular Devices). Compound cytotoxicity was evaluated in comparison to cells treated with 0.05% PBS (ADCs) or 0.05% DMSO (toxic payload). IC50 values were calculated by fitting viability data with a four-parameter logistic equation using GraphPad prism 5.0 software.
# [2] = In vivo PK in mice, MSD ECL total and conjugated antibody assays; set-up: species or system BALB/c mice; details: 3 mg/kg via the tail vein
# Method: The mice were administered at a dose level of 3 mg/kg via the tail vein. Blood samples were then obtained at different time points for determining the concentrations of DCBPR2002-4(DBCO-vc-MMAE) in mice by MESO QuickPlex SQ 120 method.
# [3] = system: KLM-1 human pancreatic cancer xenograft; experiment: KLM-1 xenograft model (Example 45); details: 15 mg/kg IV once weekly for 3 weeks
# Method: Formulations respectively comprising test article DCBPR2002-4(DBCO-vc-MMAE)(15 mg/kg), test article DCBPR2002-4(DBCO-vc-seco-DUBA)(15 mg/kg), test article DCBPR2002-4(DBCO-s-DM1) (15 mg/kg), test article DCBPR2002-2(DBCO-vc-MMAE)-2(DBCO-vc-seco-DUBA) (15 mg/kg), test article DCBPR2002-2(DBCO-vc-MMAE)-2(DBCO-s-DM1) (15 mg/kg), test article DCBPR2002-2(DBCO-vc-seco-DUBA)-2(DBCO-s-DM1) (15 mg/kg), and a corresponding vehicle were formulated by diluting the stock with a 25 mM sodium citrate buffer (pH6.5). Each of the formulations was administered intravenously (IV) once weekly for three weeks.
# The KLM-1 cells were maintained in vitro as a monolayer culture in RPMI-1640 medium supplemented with 10% fetal bovine serum at 37° C. in an atmosphere of 5% CO2 in air. The tumor cells were routinely sub-cultured twice weekly by trypsin-EDTA treatment. The cells growing in an exponential growth phase were harvested and counted for tumor inoculation.
# Male NOD SCID mice at age of 6-7 weeks were purchased from BioLasco Taiwan Co., LTD. and quarantined for one week. Five mice were housed in each cage. All animals were hosted in the animal facility with a 12-h light/12-h dark cycle at 19-25° C. Animals had free access to rodent pellet foods and water ad libitum.
# KLM-1 cells were subcutaneously (SC) implanted (4×10^6 cells in 1:1 PBS/matrigel mixture at 0.1 mL per mouse) into the right flank of male NOD SCID mice. When the average tumor volume had reached 300 mm^3, the mice were randomly divided into 7 groups (N=6 per group). Each of the vehicle, DCBPR2002-4(DBCO-vc-MMAE), DCBPR2002-4(DBCO-vc-seco-DUBA), DCBPR2002-4(DBCO-s-DM1), DCBPR2002-2(DBCO-vc-MMAE)-2(DBCO-vc-seco-DUBA), DCBPR2002-2(DBCO-vc-MMAE)-2(DBCO-s-DM1), DCBPR2002-2(DBCO-vc-seco-DUBA)-2(DBCO-s-DM1) was intravenously administered as 15 mg/kg once weekly for 3 weeks.
# The tumor volumes, body weights, mortality, and signs of overt toxicity were monitored and recorded three times weekly for 28 days. Tumor volumes were measured three times per week using calipers and calculated according to the formula: Tumor Volume=(w2×l)/2, where w=width and l=length in diameter (mm) of the tumor. […] One-way ANOVA followed by Dunnett's test was applied for comparison between the vehicle and test article-treated groups. Differences are considered significant at *P<0.05. Animals were weighed three times weekly until the completion of the study.
# Sequence of mesothelin protein (Q13421 with tags, fused parts or gaps): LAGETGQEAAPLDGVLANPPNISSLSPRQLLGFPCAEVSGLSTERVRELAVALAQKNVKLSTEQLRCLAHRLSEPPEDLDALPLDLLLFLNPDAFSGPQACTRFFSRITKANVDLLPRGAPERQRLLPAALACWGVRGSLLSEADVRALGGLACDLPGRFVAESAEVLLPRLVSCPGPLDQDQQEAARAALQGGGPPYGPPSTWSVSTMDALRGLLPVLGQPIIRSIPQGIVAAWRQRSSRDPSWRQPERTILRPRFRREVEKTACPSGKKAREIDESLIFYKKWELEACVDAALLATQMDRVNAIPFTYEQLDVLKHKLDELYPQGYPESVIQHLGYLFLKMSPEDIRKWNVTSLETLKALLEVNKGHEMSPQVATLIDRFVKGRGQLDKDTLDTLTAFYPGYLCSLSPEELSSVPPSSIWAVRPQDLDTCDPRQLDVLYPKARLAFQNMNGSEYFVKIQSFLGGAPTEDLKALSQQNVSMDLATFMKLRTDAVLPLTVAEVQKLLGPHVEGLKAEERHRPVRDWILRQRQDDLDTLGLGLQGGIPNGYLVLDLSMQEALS
molecule,measurement,setting,value
"DCBPR2002-4(DBCO-vc-MMAE): DCBPR2002-4Az reacted with DBCO-vc-MMAE; trimannosyl-conjugated ADC, DAR 3.89 (conjugate) VH: QVQLVQSGAEVKKPGASVKVSCKASGYSFTGYTMNWVRQAPGQGLEWMGLITPYNGASSYNQKFRGRVTMTRDTSISTAYMELSRLRSDDTAVYYCARGGYDGRGFDYWGQGTLVTVSS VL: EIVLTQSPATLSLSPGERATLSCSASSSVSYMHWYQQKPGQAPRLLIYDTSKLASGIPARFSGSGSGTDFTLTISSLEPEDFAVYYCQQWSKHPLTFGQGTKVEIKR",Rmax(RU),mesothelin protein,55.99 RU
same,Ka,mesothelin protein; antibody/ADC captured on CM5 chip via anti-human IgG-Fc,5.395E+6
same,dissociation rate constant (koff),"mesothelin protein; dissociation rate, antibody/ADC captured on CM5 chip",1.17E−4
same,IC50,[1],1 nM
same,AUC(0−last),[2]; Conjugated antibody,2264 ng·h/mL
same,C0,[2]; Conjugated antibody,275 ng/mL
same,MRT,[2]; Conjugated antibody,23.4 h
same,Vss,[2]; Conjugated antibody,0.155 L/kg
same,AUC(0−last),[2]; Total antibody,25963 ng·h/mL
same,C0,[2]; Total antibody,346 ng/mL
same,MRT,[2]; Total antibody,299 h
same,Vss,[2]; Total antibody,0.129 L/kg
same,t1/2,[2]; Total antibody,220 h
same,body weight changes,[3],No body weight loss was observed
same,ranking of efficacy potency,[3],DCBPR2002-4(DBCO-vc-seco-DUBA)=DCBPR2002-2(DBCO-vc-MMAE)-2(DBCO-vc-seco-DUBA)=DCBPR2002-2(DBCO-vc-seco-DUBA)-2(DBCO-s-DM1)>DCBPR2002-4(DBCO-vc-MMAE)>DCBPR2002-2(DBCO-vc-MMAE)-2(DBCO-s-DM1)>DCBPR2002-4(DBCO-s-DM1)
